In paper PMC5179029, “Selection and Characterization of Tau Binding ᴅ-Enantiomeric Peptides with Potential for Therapy of Alzheimer Disease” (PLoS ONE, 2016):
Square brackets hold non-standard residues; d marks the D form. Ends that are not written are not given here. * marks the point of attachment. 6FAM = O=C1OC2(c3ccc(O)cc3Oc3cc(O)ccc32)c2cc(C(=O)*)ccc21

Tests used:
[1] = target: T1, tau monomers (tau-441, 2N4R) (Homo sapiens, UniProt P10636); experiment: ELISA binding of FAM-labeled peptides to tau monomers; details: 20 μg/mL FAM-labeled peptide; for Binding to tau monomers (ELISA, in words): 5 μg/mL tau monomers coated, HRP anti-FITC detection; for ELISA signal, ranking among peptides: tau monomers and fibrils
T1 construct: Full lengths tau protein expression and purification; made in house
Protocol: (§1) Tau protein [tau-441 (2N4R) MW 45.9 kDa], purified as described in the main text, was used to prepare tau fibrils, the preparation of the fibrils was performed according to Barghorn et al. with slight modifications: 30 µM tau protein were incubated for 48 hours with 20 µM heparin MW ≈ 5000 (Fisher scientific, Schwerte, Germany) in phosphate-buffered saline (PBS) pH 7.4 at room temperature.
(§2) Polystyrene 96-well microtiter plates (Greiner Bio-One GmbH, Frickenhausen, Germany) were coated with 100 µL/well of tau monomers or fibrils in concentration of 5 µg/mL respectively, followed by incubation for 1 hour at room temperature. As control, PBS pH 7.4 containing 1 % BSA (IgG free) (Roth, Karlsruhe, Germany) was used instead of tau protein solution. After washing three times with PBS-T (phosphate-buffered saline (pH 7.4) with (0.1 %) Tween 20), and blocking for 1 h at room temperature with 1 % BSA (IgG free) (Roth, Karlsruhe, Germany) in PBS, the plate was washed three times with PBS-T. Then the peptides APT-Lys(FAM)-NH2, KNT-Lys(FAM)-NH2, LPS-Lys(FAM)-NH2, TD28-Lys(FAM)-NH2, TD28rev-Lys(FAM)-NH2 as well as d-TLKIVW-Lys(FAM)-NH2 (JPT Peptide Technologies, Berlin, Germany) were dissolved in PBS-T and added at 100 µL/well in concentration of 20 µg/mL, respectively, the plate was allowed to react for 1 h at room temperature in the dark. Subsequently, the plate was washed 3 times with PBS-T, horseradish peroxidase-conjugated sheep anti-FITC secondary antibodies (Bio-Rad, Muenchen, Germany) were diluted 1:5000 in PBS-T; the antibodies were incubated on the plate 1 h at room temperature. After incubation, the plate was washed 3 times with PBS-T. Subsequently, the substrate solution was prepared as follows: 10 mg of 3,3',5,5'-tetramethylbenzidine (TMB) (Roth, Karlsruhe, Germany) was dissolved in 1 ml dimethylsulfoxide (DMSO), 62 µL from TMB solution were mixed with 9 mL distilled water, 1 mL 1 M sodium acetate buffer (pH 6) and 10 µL 3 % hydrogen peroxide. 100 µL of the prepared substrate solution were transferred to the according wells. Finally, the reaction was stopped with 100 µL/well of 20 % H2SO4, and the plate was read at 450 nm (Multiskan GO, Thermo scientific, Germany).

[2] = tested on: inducible N2aTau^4RDΔK280 cells; experiment: Penetration of FAM-labeled peptides into cells (confocal microscopy); assay type: cell-based; set-up: key to Cell penetration: membrane, 2 hours incubation / Cell penetration: membrane, 4 days incubation / Cell penetration: cytosol, 4 days incubation / Cell penetration: cytosol, 2 hours incubation / Cell penetration: nuclei, 4 days incubation / Cell penetration: nuclei, 2 hours incubation: +: Cell compartments where fluorescence of the label was detected are summarized here
Protocol: The peptides were obtained with a 6-Carboxyfluorescein (FAM) label, linked via a C-terminal lysine, to assay their ability to enter N2a cells expressing a variant of tau protein (construct tau^4RDΔK280, derived from the 4-repeat domain) in a regulatable fashion. The cells were incubated in the presence of the peptides for two hours (short term uptake) and four days (long term uptake and stability) at concentrations of 60 μM. After incubation the cells were fixed on glass cover slips and monitored by a confocal microscope (Fluoview 1000, Olympus). The localizations of the D-peptides were detected by their FAM-label (excitation: 488 nm, emission: 520 nm). In addition, cell nuclei were stained with TOPRO3 dye (excitation: 633 nm, emission: 660–670 nm). Representative pictures were taken with magnifications of 10-times for overview and 60- and 120-times for more detailed analysis.

[3] = target: T2, tau fibrils (tau-441, 2N4R, heparin induced) (Homo sapiens, UniProt P10636); experiment: ELISA binding of FAM-labeled peptides to tau fibrils; details: 5 μg/mL tau fibrils coated, 20 μg/mL FAM-labeled peptide, HRP anti-FITC detection
T2 construct: Full lengths tau protein expression and purification; made in house
Protocol: as §1, §2

tau (Homo sapiens) = details: cited from earlier work
[4] = target: tau^3RD (three repeat domain construct of tau protein, K19) (human)
[5] = 60 μM FAM labeled peptide, N2aTau^4RDΔK280 cells, fixed cells, confocal microscope, FAM fluorescence
[6] = 60 μM FAM labeled peptide, N2aTau^4RDΔK280 cells, fixed cells, confocal microscope, FAM fluorescence, nuclei stained with TOPRO3

T2 sequence (P10636 1-441 isoform P10636-8): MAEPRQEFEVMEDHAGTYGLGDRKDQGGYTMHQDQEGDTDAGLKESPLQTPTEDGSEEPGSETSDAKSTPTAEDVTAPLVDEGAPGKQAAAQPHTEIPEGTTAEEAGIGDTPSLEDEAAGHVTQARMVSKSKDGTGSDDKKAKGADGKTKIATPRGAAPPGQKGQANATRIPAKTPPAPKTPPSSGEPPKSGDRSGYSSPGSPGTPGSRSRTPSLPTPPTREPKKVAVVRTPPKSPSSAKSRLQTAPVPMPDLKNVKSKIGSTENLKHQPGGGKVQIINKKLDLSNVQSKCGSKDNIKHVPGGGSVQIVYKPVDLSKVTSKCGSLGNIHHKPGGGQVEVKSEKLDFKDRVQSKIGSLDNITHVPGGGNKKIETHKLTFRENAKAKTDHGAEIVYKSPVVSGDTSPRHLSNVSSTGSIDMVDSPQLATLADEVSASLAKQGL
T1 sequence (P10636 1-441 isoform P10636-8): as above
tau^3RD (three repeat domain construct of tau protein, K19) (human), sequence (P10636 other isoform, or with tags, fused parts or gaps): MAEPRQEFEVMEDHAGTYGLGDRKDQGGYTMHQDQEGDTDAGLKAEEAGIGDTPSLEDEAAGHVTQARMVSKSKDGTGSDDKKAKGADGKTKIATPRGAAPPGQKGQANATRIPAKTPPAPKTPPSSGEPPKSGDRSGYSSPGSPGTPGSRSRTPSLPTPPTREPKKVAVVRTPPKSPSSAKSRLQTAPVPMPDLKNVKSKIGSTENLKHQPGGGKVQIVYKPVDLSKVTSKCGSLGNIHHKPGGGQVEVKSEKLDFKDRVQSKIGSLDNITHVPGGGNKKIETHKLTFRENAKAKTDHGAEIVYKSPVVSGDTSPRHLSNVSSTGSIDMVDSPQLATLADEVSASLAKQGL

| Molecule | Binding to tau monomers (ELISA, in words) [1] | Cell penetration: cytosol, 4 days incubation [2, 5] | Cell penetration: membrane, 2 hours incubation [2, 5] | Cell penetration: membrane, 4 days incubation [2, 5] | Cell penetration, overall judgement (in words) ([2]; 60 μM FAM-labeled peptide, N2a cells, up to 4 days) | Binding to tau fibrils (ELISA, in words) [3] | Kd (tau (Homo sapiens)) [µM] | ELISA signal, ranking among peptides [1] | Cell penetration: cytosol, 2 hours incubation [2, 5] | Cell penetration: nuclei, 4 days incubation [2, 6] | Cell penetration: nuclei, 2 hours incubation [2, 6] | half maximal effect concentration, inhibition of tau^3RD (K19) fibril formation (K19 with K19), ThS fluorescence in vitro [4] [µM] |
| --- | --- | --- | --- | --- | --- | --- | --- | --- | --- | --- | --- | --- |
| APT-Lys(FAM)-NH2: APT with 6-Carboxyfluorescein (FAM) label linked via a C-terminal lysine ([dA][dP][dT][dL][dL][dR][dL][dH][dS][dL]G[dA]K(6FAM)-NH2; N-terminus assumed; SMILES CC(C)C[C@@H](NC(=O)[C@@H](CO)NC(=O)[C@@H](Cc1c[nH]cn1)NC(=O)[C@@H](CC(C)C)NC(=O)[C@@H](CCCNC(=N)N)NC(=O)[C@@H](CC(C)C)NC(=O)[C@@H](CC(C)C)NC(=O)[C@H](NC(=O)[C@H]1CCCN1C(=O)[C@@H](C)N)[C@H](C)O)C(=O)NCC(=O)N[C@H](C)C(=O)N[C@@H](CCCCNC(=O)c1ccc2c(c1)C1(OC2=O)c2ccc(O)cc2Oc2cc(O)ccc21)C(N)=O) | binding could be demonstrated | + | + | + | worst cell penetration properties | binding could be demonstrated | – | – | – | – | – | – |
| D-peptide D-TLKIVW | – | – | – | – | – | – | 2 | – | – | – | – | – |
| KNT-Lys(FAM)-NH2: KNT with 6-Carboxyfluorescein (FAM) label linked via a C-terminal lysine ([dK][dN][dT][dP][dQ][dH][dR][dK][dL][dR][dL][dS]K(6FAM)-NH2; N-terminus assumed; SMILES CC(C)C[C@@H](NC(=O)[C@@H](CCCNC(=N)N)NC(=O)[C@@H](CC(C)C)NC(=O)[C@@H](CCCCN)NC(=O)[C@@H](CCCNC(=N)N)NC(=O)[C@@H](Cc1c[nH]cn1)NC(=O)[C@@H](CCC(N)=O)NC(=O)[C@H]1CCCN1C(=O)[C@H](NC(=O)[C@@H](CC(N)=O)NC(=O)[C@H](N)CCCCN)[C@H](C)O)C(=O)N[C@H](CO)C(=O)N[C@@H](CCCCNC(=O)c1ccc2c(c1)C1(OC2=O)c2ccc(O)cc2Oc2cc(O)ccc21)C(N)=O) | binding could be demonstrated | + | + | + | – | binding could be demonstrated | – | highest | + | – | – | – |
| TD28-Lys(FAM)-NH2: TD28 with 6-Carboxyfluorescein (FAM) label linked via a C-terminal lysine ([dT][dT][dS][dL][dQ][dM][dR][dL][dY][dY][dP][dP]K(6FAM)-NH2; N-terminus assumed; SMILES CSCC[C@@H](NC(=O)[C@@H](CCC(N)=O)NC(=O)[C@@H](CC(C)C)NC(=O)[C@@H](CO)NC(=O)[C@H](NC(=O)[C@H](N)[C@H](C)O)[C@H](C)O)C(=O)N[C@H](CCCNC(=N)N)C(=O)N[C@H](CC(C)C)C(=O)N[C@H](Cc1ccc(O)cc1)C(=O)N[C@H](Cc1ccc(O)cc1)C(=O)N1CCC[C@@H]1C(=O)N1CCC[C@@H]1C(=O)N[C@@H](CCCCNC(=O)c1ccc2c(c1)C1(OC2=O)c2ccc(O)cc2Oc2cc(O)ccc21)C(N)=O) | binding could be demonstrated | + | + | + | – | binding could be demonstrated | – | highest | + | + | – | – |
| TD28rev-Lys(FAM)-NH2: TD28rev with 6-Carboxyfluorescein (FAM) label linked via a C-terminal lysine ([dP][dP][dY][dY][dL][dR][dM][dQ][dL][dS][dT][dT]K(6FAM)-NH2; N-terminus assumed; SMILES CSCC[C@@H](NC(=O)[C@@H](CCCNC(=N)N)NC(=O)[C@@H](CC(C)C)NC(=O)[C@@H](Cc1ccc(O)cc1)NC(=O)[C@@H](Cc1ccc(O)cc1)NC(=O)[C@H]1CCCN1C(=O)[C@H]1CCCN1)C(=O)N[C@H](CCC(N)=O)C(=O)N[C@H](CC(C)C)C(=O)N[C@H](CO)C(=O)N[C@@H](C(=O)N[C@@H](C(=O)N[C@@H](CCCCNC(=O)c1ccc2c(c1)C1(OC2=O)c2ccc(O)cc2Oc2cc(O)ccc21)C(N)=O)[C@H](C)O)[C@H](C)O) | binding could be demonstrated | + | + | + | – | binding could be demonstrated | – | – | + | + | + | – |
| TTSLQMRLYYPP [TL28] | – | – | – | – | – | – | – | – | – | – | – | > 200 |
